Experimental data as given in patent US7326551B2, “Cloning and sequencing of pyruvate decarboxylase (PDC) genes from bacteria and uses therefor” (University of Florida Research Foundation, Inc., priority 2001, dated 2008).

Experiments:
Experiment in all cases: PDC activity by ADH-coupled assay, kinetic parameters for pyruvate
[1] = substrate: CC(=O)C(=O)O; type: biochemical, Zymomonas mobilis; conditions: other: ZmoPDC
Protocol: All procedures were performed at room temperature and all purification buffers contained 1 mM TPP and 1 mM MgCl2 unless otherwise indicated. S. ventriculi PDC was purified from recombinant E. coli BL21-CodonPlus-RIL(pJAM419) and Rosetta (DE3)(pRARE, pJAM419) as previously described (45). Z. mobilis PDC was purified from recombinant E. coli DH5α (pLOI276) (11) using thermal treatment, Q-Sepharose, and Superdex 200 procedures as described below for the Z. palmae PDC with the exception that the Z. mobilis PDC was eluted from Q-Sepharose at 0.22 to 0.32 M NaCl.
(§1) PDC Quantitation and Enzyme Activity Assay—Polypeptide concentration was determined using Bradford reagent with bovine serum albumin as the standard (BioRad). PDC activity was measured by the coupled assay with baker's yeast alcohol dehydrogenase (ADH) (Sigma-Aldrich, St. Louis, Mo.) as previously described (11). The reaction mixture contained 0.15 mM NADH, 5 mM MgCl2, 0.1 mM TPP, 5 mM pyruvate, and 10 U ADH in 50 mM sodium citrate buffer at pH 5.0 and was measured at 25° C. unless otherwise indicated. One unit of enzyme activity is defined as the amount of enzyme that generates 1 μmol of acetaldehyde per min.
(§2) As a further comparison, the kinetic constants of all four bacterial PDC polypeptides were determined at their pH optimum as well as at pH 7.0 (Table 3). […]

[2] = substrate: CC(=O)C(=O)O; type: biochemical, Zymobacter palmae; conditions: other: ZpaPDC
Protocol: (i) Purification of Z. palmae PDC—Z. palmae and E. coli DH5α (pJAM3440) cells were grown to stationary phase and harvested by centrifugation at 10,000×g (10 min, 4° C.). Cells (12 to 15 g wet wt) were resuspended in 6 volumes of 50 mM sodium phosphate buffer at pH 6.5 containing 1 mM TPP and 1 mM MgCl2 (buffer A) and passed through a chilled French pressure cell at 20,000 lb per in^2. Cell debris was removed by centrifugation at 16,000×g (20 min, 4° C.). Cell lysate was heated to 60° C. for 30 min, chilled on ice for 15 min, and centrifuged at 16,000×g (30 min at 4° C.) to remove denatured polypeptides. […]
as §1, with “One unit of enzyme activity is defined as the amount of enzyme that generates 1 μmol of acetaldehyde per min.” left out
as §2

[3] = substrate: CC(=O)C(=O)O; type: biochemical, Acetobacter pasteurianus; conditions: other: ApaPDC
Source text: (ii) Purification of A. pasteurianus PDC—PDC was purified from A. pasteurianus and E. coli ER1648(pJAM304) using heat-treatment, Q-Sepharose, Superdex 200, and hydroxyapatite as described for the Z. palmae PDC with the following modifications. Cells were passed through a French pressure cell at 30,000 lb per in^2. The PDC activity, which was eluted at 0.17 to 0.26 M NaCl from the Q-Sepharose column, was pooled and concentrated by dialysis against PEG8000 prior to loading onto the Superdex 200 column.
as §1, §2

[4] = pH 7.0, normal Michaelis-Menten kinetics, pH 7.0, 25.0 °C

B1: Zymomonas mobilis pyruvate decarboxylase (ZmoPDC), recombinant, wild type, SEQ ID NO:8 (Zymomonas mobilis subsp. mobilis ZM4 = ATCC 31821) (protein)
chain: MSYTVGTYLAERLVQIGLKHHFAVAGDYNLVLLDNLLLNKNMEQVYCCNELNCGFSAEGYARAKGAAAAVVTYSVGALSAFDAIGGAYAENLPVILISGAPNNNDHAAGHVLHHALGKTDYHYQLEMAKNITAAAEAIYTPEEAPAKIDHVIKTALREKKPVYLEIACNIASMPCAAPGPASALFNDEASDEASLNAAVEETLKFIANRDKVAVLVGSKLRAAGAEEAAVKFADALGGAVATMAAAKSFFPEENPHYIGTSWGEVSYPGVEKTMKEADAVIALAPVFNDYSTTGWTDIPDPKKLVLAEPRSVVVNGVRFPSVHLKDYLTRLAQKVSKKTGALDFFKSLNAGELKKAAPADPSAPLVNAEIARQVEALLTPNTTVIAETGDSWFNAQRMKLPNGARVEYEMQWGHIGWSVPAAFGYAVGAPERRNILMVGDGSFQLTAQEVAQMVRLKLPVIIFLINNYGYTIEVMIHDGPYNNIKNWDYAGLMEVFNGNGGYDSGAGKGLKAKTGGELAEAIKVALANTDGPTLIECFIGREDCTEELVKWGKRVAAANSRKPVNKLL
notes: coupled test with yeast ADH
Work on B1 yielded a Km ([1]; pH 6.0, normal Michaelis-Menten kinetics, pH 6.0, 25.0 °C) of 430 µM and a Km [1, 4] of 940 µM.

B2: Zymobacter palmae pyruvate decarboxylase (ZpaPDC), recombinant, wild type, SEQ ID NO:2 (Zymobacter palmae) (protein)
chain: MYTVGMYLAERLAQIGLKHHFAVAGDYNLVLLDQLLLNKDMEQVYCCNELNCGFSAEGYARARGAAAAIVTFSVGAISAMNAIGGAYAENLPVILISGSPNTNDYGTGHILHHTIGTTDYNYQLEMVKHVTCARESIVSAEEAPAKIDHVIRTALRERKPAYLEIACNVAGAECVRPGPINSLLRELEVDQTSVTAAVDAAVEWLQDRQNVVMLVGSKLRAAAAEKQAVALADRLGCAVTIMAAEKGFFPEDHPNFRGLYWGEVSSEGAQELVENADAILCLAPVFNDYATVGWNSWPKGDNVMVMDTDRVTFAGQSFEGLSLSTFAAALAEKAPSRPATTQGTQAPVLGIEAAEPNAPLTNDEMTRQIQSLITSDTTLTAETGDSWFNASRMPIPGGARVELEMQWGHIGWSVPSAFGNAVGSPERRHIMMVGDGSFQLTAQEVAQMIRYEIPVIIFLINNRGYVIEIAIHDGPYNYIKNWNYAGLIDVFNDEDGHGLGLKASTGAELEGAIKKALDNRRGPTLIECNIAQDDCTETLIAWGKRVAATNSRKPQA
notes: coupled test with yeast ADH
Protein B2 has a Km ([2]; pH 6.0, 25° C., normal Michaelis-Menten kinetics, pH 6.0, 25.0 °C) of 240 µM and a Km ([2]; pH 7.0, normal Michaelis-Menten kinetics, pH 7.0) of 710 µM.

B3: Acetobacter pasteurianus pyruvate decarboxylase (ApaPDC), recombinant, wild type, SEQ ID NO:4 (Acetobacter pasteurianus) (protein)
chain: MTYTVGMYLAERLVQIGLKHHFAVGGDYNLVLLDQLLLNKDMKQIYCCNELNCGFSAEGYARSNGAAAAVVTFSVGAISAMNALGGAYAENLPVILISGAPNSNDQGTGHILHHTIGKTDYSYQLEMARQVTCAAESITDAHSAPAKIDHVIRTALRERKPAYLDIACNIASEPCVRPGPVSSLLSEPEIDHTSLKAAVDATVALLKNRPAPVMLLGSKLRAANALAATETLADKLQCAVTIMAAAKGFFPEDHAGFRGLYWGEVSNPGVQELVETSDALLCIAPVFNDYSTVGWSGMPKGPNVILAEPDRVTVDGRAYDGFTLRAFLQALAEKAPARPASAQKSSVPTCSLTATSDEAGLTNDEIVRHINALLTSNTTLVAETGDSWFNAMRMTLAGARVELEMQWGHIGWSVPSAFGNAMGSQDRQHVVMVGDGSFQLTAQEVAQMVRYELPVIIFLINNRGYVIEIAIHDGPYNYIKNWDYAGLMEVFNAGEGHGLGLKATTPKELTEAIARAKANTRGPTLIECQIDRTDCTDMLVQWGRKVASTNARKTTLA
notes: coupled test with yeast ADH
B3 gave a Km ([3]; pH 5.0, 25° C., normal Michaelis-Menten kinetics, pH 5.0) of 390 µM and a Km [3, 4] of 5100 µM.
